Data on four molecules can be found in patent WO2014171532A1 (dated 2014).

The target of assay [1] is T1, human sTWEAK protein (Peprotech, 310-06) (human, UniProt O43508 97-249).
T1 construct: Bought protein; also called soluble type TWEAK; ヒトsTWEAK
T1 sequence: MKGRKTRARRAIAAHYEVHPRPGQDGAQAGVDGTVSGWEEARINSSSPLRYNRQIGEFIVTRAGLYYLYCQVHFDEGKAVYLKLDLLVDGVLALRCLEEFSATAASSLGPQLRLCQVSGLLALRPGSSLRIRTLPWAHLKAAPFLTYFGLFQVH
The assay can be described thus: ELISA, sTWEAK immobilised at 0.5 μg/mL, antibody 80 nM to 0.0000003 nM, chemiluminescence. For orientation: In an ELISA, binding on a coated surface is turned into a signal by an enzyme label.

Assay [2] concerns the target T2, human mTWEAK variant expressed on HEK293 cells (human, UniProt O43508 1-249).
T2 construct: also called human mTWEAK mutant; membrane type TWEAK
T2 sequence: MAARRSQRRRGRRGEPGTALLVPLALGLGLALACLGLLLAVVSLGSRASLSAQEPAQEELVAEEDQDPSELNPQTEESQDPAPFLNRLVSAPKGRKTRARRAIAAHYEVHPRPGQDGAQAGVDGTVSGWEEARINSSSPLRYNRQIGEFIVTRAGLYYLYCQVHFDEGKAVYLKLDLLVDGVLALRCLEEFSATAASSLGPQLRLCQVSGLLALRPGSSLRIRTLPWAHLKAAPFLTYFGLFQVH
The assay can be described thus: flow cytometry (BD FACSArray) on HEK293 cells transfected with human mTWEAK vector, antibody 80 nM to 0.001355 nM, MFI.

The target of assay [3] is T2, human mTWEAK variant expressed on …. Kind of assay: hybridoma screening (Examples 3-6).
In assay [4] the target is T1, human sTWEAK protein (Peprotech, 310-06). Kind of assay: hybridoma screening, antigen ELISA on immobilised sTWEAK (Examples 3-6).

B1: fully human TBA4-1 (antibody, human IgG1, kappa, V domains shown)
VH: QVQLVESGGGVVQPGRSLRLSCAASGFTFSSYGMHWVRQAPGKGLAWVAIISSDGNNKYYIDSVKGRFTISRDNSKNTLYLQMNNLRAEDTAVYYCAKDSHISIFGAVDSWGQGTLVTVSS
VL: AIQMTQSPSSLSASVGDRVTITCRASQAIRNDLGWYQQKPGKAPKLLIYAASSLQSGVPSRFSGSGSGTDFTLTISSLQPEDFATYYCLQDYNYPWTFGQGTKVEIKR
notes: Human variable regions of TBA4-1 joined to human Ig gamma1 and human kappa constant regions; also called fully human antibody of TBA4-1; 完全ヒト型TBA4-1
As for B1, the binding result in assay [1] and in assay [2] was “binds” in each case.

B2: TBA4-1 (chimeric antibody) (antibody, V domains shown)
VH: QVQLVESGGGVVQPGRSLRLSCAASGFTFSSYGMHWVRQAPGKGLAWVAIISSDGNNKYYIDSVKGRFTISRDNSKNTLYLQMNNLRAEDTAVYYCAKDSHISIFGAVDSWGQGTLVTVSS
VL: AIQMTQSPSSLSASVGDRVTITCRASQAIRNDLGWYQQKPGKAPKLLIYAASSLQSGVPSRFSGSGSGTDFTLTISSLQPEDFATYYCLQDYNYPWTFGQGTKVEIKR
As for B2, the binding result in assay [3] and in assay [4] was “binds” in each case.

B3: fully human TBA3-35.1 (antibody, human IgG1, kappa, V domains shown)
VH: EVQLLESGGGLVQPGGSLRLSCAASGFTFSSYAMSWVRQAPGKGLEWVSAIGNSGFYTHYADSVKGRFTISRDNSKNTLYLQMNSLRAEDTAVYYCAKVGIAVVGDYYQFGMDVWGQGTTVTVSS
VL: DIQMTQSPSSLSASVGDRVTITCRASQGIRNDLGWYQQKPGKAPKLLIYGASSLQSGVPSRFSGSGSGTDFTLTISSLQPEDFATYYCLQDYNYPWTFGQGTKVEIKR
With B3, the binding result in assay [1] and in assay [2] was “binds” in each case.

B4: fully human TBA3-25 (antibody, human IgG1, kappa, V domains shown)
VH: QVQLVQSGAEVKKPGASVRVSCKVSGYTLIDLSMHWVRQAPGNGLEWMGGFDPENGEKIYAEKFQGRVTMTEDTSTDTAYMDLSSLRSEDTAVYYCASGYSYGHFDYWGQGTLVTVSS
VL: DIQMTQSPSTLSASVGDRVTITCRASQNIGRWLAWYQQKPGKAPNLLIYKASRLESGVPSRFSGSGSGTEFTLTITSLQPDDFATYYCQQYNRYSRTFGQGTKVEIKR
modifications: in most of the purified antibody: N-terminal glutamine (amino acid 1) modified to pyroglutamic acid; C-terminal lysine (amino acid 448) deleted
notes: Human variable regions of TBA3-25 joined to human Ig gamma1 and human kappa constant regions; Analysis of the purified antibody found pyroglutamate at the heavy chain N-terminus and loss of the heavy chain C-terminal lysine in most of it; also called fully human antibody of TBA3-25; 完全ヒト型TBA3-25
For the molecule B4, the binding result in assay [1] and in assay [2] was “binds” each time.
